# Data published in IntAct's records for PubMed 20622900.
# Biological target: mk03_human MAPK3 (UniProt P27361)
# Sequence (P27361 whole entry): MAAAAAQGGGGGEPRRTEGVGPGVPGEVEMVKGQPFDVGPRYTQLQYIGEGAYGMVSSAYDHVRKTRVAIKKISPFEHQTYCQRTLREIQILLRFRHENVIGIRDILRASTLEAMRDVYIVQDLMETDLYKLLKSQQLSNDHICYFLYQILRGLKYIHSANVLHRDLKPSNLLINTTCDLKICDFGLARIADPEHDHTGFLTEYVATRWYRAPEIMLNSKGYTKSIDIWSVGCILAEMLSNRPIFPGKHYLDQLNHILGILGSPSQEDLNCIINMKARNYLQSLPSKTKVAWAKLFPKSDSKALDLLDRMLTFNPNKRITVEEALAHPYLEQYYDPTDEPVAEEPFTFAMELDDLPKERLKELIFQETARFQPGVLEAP
row,Substance,effect of a mutation on the interaction
1,"Protein scribble homolog (Homo sapiens), Q14160 K1399A;R1400A",disrupting interaction
2,"Protein scribble homolog (Homo sapiens), Q14160 R839A;R840A",decreasing interaction
